For data set [1], the system named is LacI-Gly60+3 (Escherichia coli). Kind of data set: EMSA. The conditions noted are these: 5 mM Mg2+; EMSA: 20 mM Tris-HCl pH 8.0, 200 mM NaCl, 0.5 mM EDTA, 1 mM DTT, 5 mM MgCl2, 5% glycerol, 0.1 nM DNA, 22 C, 60 min; nicking assays at 37 C. (Mobility shift assays separate free from complexed probe on a gel.)
In data set [2] the test system is LacI (lac repressor), wild type (Escherichia coli). Kind of data set: EMSA. The conditions noted are these: no IPTG; 5 mM Mg2+; EMSA: 20 mM Tris-HCl pH 8.0, 200 mM NaCl, 0.5 mM EDTA, 1 mM DTT, 5 mM MgCl2, 5% glycerol, 0.1 nM DNA, 22 C, 60 min; nicking assays at 37 C.

lac O1 fragment: the Ka in data set [1] amounted to 1e+09 M⁻¹; in data set [2] it was 1.2e+10 M⁻¹.
For lac Os fragment, in data set [1], the Ka turned out to be 2.4e+09 M⁻¹.
On the same count and under the same terms, the figure for lac O2 fragment is 6.2e+08 M⁻¹.

The values above are taken from article PMC4725879.
